From CN117751139A (YONGXIAN PHARMACEUTICAL CO LTD; UNIV AIX MARSEILLE; INST …, dated 2024)

Key:
[1] = target: T1, human Nectin-4 with N-terminal Flag epitope tag, on transfected MDA-MB231 cells (human, UniProt Q96NY8 32-510); assay: flow cytometry on MDA-MB231 cells transfected with N-terminally Flag-tagged Nectin-4
T1 construct: whole, on cells; also called PVRL4; PRR4
T1 sequence (looked up): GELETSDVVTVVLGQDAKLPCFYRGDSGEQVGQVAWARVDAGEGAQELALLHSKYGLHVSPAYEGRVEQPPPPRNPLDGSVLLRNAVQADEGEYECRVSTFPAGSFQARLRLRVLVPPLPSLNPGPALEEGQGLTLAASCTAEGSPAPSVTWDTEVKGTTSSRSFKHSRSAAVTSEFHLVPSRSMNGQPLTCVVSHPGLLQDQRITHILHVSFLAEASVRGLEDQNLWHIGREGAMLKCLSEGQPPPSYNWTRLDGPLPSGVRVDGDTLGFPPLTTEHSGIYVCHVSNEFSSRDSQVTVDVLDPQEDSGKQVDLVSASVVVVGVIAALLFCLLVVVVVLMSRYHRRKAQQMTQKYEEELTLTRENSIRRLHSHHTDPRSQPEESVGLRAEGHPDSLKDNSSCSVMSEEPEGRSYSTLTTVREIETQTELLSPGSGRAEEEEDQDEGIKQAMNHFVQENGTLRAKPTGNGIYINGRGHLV

[2] = target: T2, human Nectin-4 on CHO cells transfected with human Nectin-4 cDNA (human, UniProt Q96NY8 32-510); assay: flow cytometry competition on CHO cells with human Nectin-4; competitor Nec1-VCC
T2 construct: whole, on cells
T2 sequence (looked up): T1 sequence (looked up)

[3] = target: T3, Nectin-4 expressed by normal differentiated human keratinocytes (NHEK) (human, UniProt Q96NY8 32-510); assay: flow cytometry on normal differentiated human keratinocytes (NHEK), 8 pM-33 nM; reference of the comparison
T3 construct: whole, on cells; also called Nectin-4 on NHEK; keratinocyte Nectin-4
T3 sequence (looked up): T1 sequence (looked up)

[4] = target: T4, Nectin-1 extracellular domain Fc fusion recombinant protein (Nec1-VCC) (UniProt Q15223 31-355, limits assumed); assay: ELISA, Nec1-VCC coated on plate, peroxidase-conjugated Ch-15A7.5
T4 construct: extracellular domain; also called Nectin-1-VCC-Fc; not shown: Fc part
T4 sequence (looked up): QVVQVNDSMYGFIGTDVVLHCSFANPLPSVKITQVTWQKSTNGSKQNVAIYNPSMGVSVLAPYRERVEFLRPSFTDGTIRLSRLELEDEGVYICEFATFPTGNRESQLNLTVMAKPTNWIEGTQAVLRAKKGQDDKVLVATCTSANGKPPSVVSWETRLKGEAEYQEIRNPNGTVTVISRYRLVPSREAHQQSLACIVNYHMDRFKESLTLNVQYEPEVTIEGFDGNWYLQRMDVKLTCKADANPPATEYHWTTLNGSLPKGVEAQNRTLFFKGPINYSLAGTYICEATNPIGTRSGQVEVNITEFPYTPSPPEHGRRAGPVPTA

[5] = target: T5, Nectin-4 extracellular domain Fc fusion recombinant protein (Nec4-VCC) (human, UniProt Q96NY8 32-349); assay: statement in the legend of the competition ELISA on coated Nec4-VCC
T5 construct: extracellular domain; also called Nectin-4-VCC-Fc; not shown: Fc part
T5 sequence (looked up): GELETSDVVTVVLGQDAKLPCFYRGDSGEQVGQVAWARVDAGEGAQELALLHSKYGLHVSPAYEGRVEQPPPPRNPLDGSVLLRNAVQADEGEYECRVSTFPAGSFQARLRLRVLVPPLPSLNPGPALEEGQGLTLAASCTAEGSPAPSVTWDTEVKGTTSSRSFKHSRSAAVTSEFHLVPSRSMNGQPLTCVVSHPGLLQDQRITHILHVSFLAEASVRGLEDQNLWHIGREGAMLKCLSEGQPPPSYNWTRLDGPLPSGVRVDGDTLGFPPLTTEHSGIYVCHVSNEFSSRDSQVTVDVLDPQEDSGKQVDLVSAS

B1: Ch-5A12.2 (antibody, V domains shown)
VH: QIQLQQSGAELVKPGASVTLSCKTSGFTFNSMYISWLKQKPGQSLEWIAWIYAGTGGTRFNQKFTGKVQLTVDTSSSTAYMQFSSLTTDDSAIYYCAIRSGFVPMDYWGQGTSVTVSS
VL: SIVMTQTPKFLLVSAGDRVTITCKASQSVSNDVAWYQQKPGQSPKLLIYYASNRYTGVPDRFTGSGYGTDFTFTISTVQAEDLAVYFCQQDYSSPWTFGGGTKLEIK
notes: also called 5A12.2 mAb; chimeric 5A12.2
[1]
  binding result: binds
[2]
  binding result: binds
[3]
  binding result: binds

B2: Ch-15A7.5 (antibody, V domains shown)
VH: EVKLVESGGGLVQPGGSRKLSCAASGFTFSNYGMAWVRQAPGKGPEWVAFISNLAYGINYADTVTGRFTISRENAKNTLYLEMRSLRSEDTAMYYCARGARATGWFAYWGQGTLVTVSA
VL: DIVMTQSQKFMSTSIGDRVSVTCKASQNVDTHVAWYQEKPGQSPKALIYSASYRYSGVPDRFTGSGSGTDFTLTISNVQSEDLADYFCQQYNSYPLTFGGGTKLEIK
notes: also called Ch-15A7.5 mAb; Ch-15A7 mAb
[4]
  binding result: no binding (tested: 10nM)

B3: HA22 (enfortumab) (antibody, V domains shown)
VH: EVQLVESGGGLVQPGGSLRLSCAASGFTFSSYNMNWVRQAPGKGLEWVSYISSSSSTIYYADSVKGRFTISRDNAKNSLSLQMNSLRDEDTAVYYCARAYYYGMDVWGQGTTVTVSS
VL: DIQMTQSPSSVSASVGDRVTITCRASQGISGWLAWYQQKPGKAPKFLIYAASTLQSGVPSRFSGSGSGTDFTLTISSLQPEDFATYYCQQANSFPPTFGGGTKVEIK
notes: also called 恩弗妥单抗; HA22 mAb
[5]
  binding result: binds
